Source: US20250388696A1 (NAVIGO PROTEINS, published 2025)
Where no end group is shown, it is not given here.

B1: Fusion proteins with albumin binding domain of SEQ ID NO: 5 (designed binder, not shown: small tags and cut ends)
chain: LAEAKVLALKELDKYGISNYYKNLINNAKTIEGVKALKDAIVAA
modifications: also: part of fusion protein, targeting moiety, linker, tag and order not given here
B2: Fusion proteins with albumin binding domain of SEQ ID NO: 21 (designed binder, not shown: small tags and cut ends)
chain: LAEAKVLALKELDKYGISNYYKNLINNAKTIEGVKALKAAIVAA
modifications: also: part of fusion protein, targeting moiety, linker, tag and order not given here
B3: Fusion proteins with albumin binding domain of SEQ ID NO: 6 (designed binder, not shown: small tags and cut ends)
chain: LAEAKVLALKELDKYGISNYYKNLINNAKTIEGVKALKDEIVAA
modifications: also: part of fusion protein, targeting moiety, linker, tag and order not given here
notes: also called c20
B4: Fusion proteins with albumin binding domain of SEQ ID NO: 26 (designed binder, not shown: small tags and cut ends)
chain: LAEAKVLALKELDKYGISNYYKNLINNAKTIEGVEALKEAILAA
modifications: also: part of fusion protein, targeting moiety, linker, tag and order not given here
B5: Fusion proteins with albumin binding domain of SEQ ID NO: 7 (designed binder, not shown: small tags and cut ends)
chain: LAEAKVLALKELDKYGISNYYKNLINNAKTIEGVEALKDAILAA
modifications: also: part of fusion protein, targeting moiety, linker, tag and order not given here
notes: also called c24
B6: Fusion proteins with albumin binding domain of SEQ ID NO: 25 (designed binder, not shown: small tags and cut ends)
chain: LAEAKVLALKELDKYGISNYYKNLINNAKTIEGVEALKEAIVAA
modifications: also: part of fusion protein, targeting moiety, linker, tag and order not given here
B7: Fusion proteins with albumin binding domain of SEQ ID NO: 23 (designed binder, not shown: small tags and cut ends)
chain: LAEAKVLALKELDKYGISNYYKNLINNAKTIEGVKALKEAIVAA
modifications: also: part of fusion protein, targeting moiety, linker, tag and order not given here
notes: also called c19
B8: Fusion proteins with albumin binding domain of SEQ ID NO: 22 (designed binder, not shown: small tags and cut ends)
chain: LAEAKVLALKELDKYGISNYYKNLINNAKTIEGVKALKAQILAA
modifications: also: part of fusion protein, targeting moiety, linker, tag and order not given here
B9: Fusion proteins with albumin binding domain of SEQ ID NO: 13 (designed binder, not shown: small tags and cut ends)
chain: LAEAKVLAIKELDKAGISDYYFNLINNAKTIEGVKALKAQIVAA
modifications: also: part of fusion protein, targeting moiety, linker, tag and order not given here
B10: Fusion proteins with albumin binding domain of SEQ ID NO: 24 (designed binder, not shown: small tags and cut ends)
chain: LAEAKVLALKELDKYGISNYYKNLINNAKTIEGVEALKDAIVAA
modifications: also: part of fusion protein, targeting moiety, linker, tag and order not given here

What follows are binders tested against T1, mouse serum albumin (mouse, UniProt P07724 25-608) (assay: SPR, MSA immobilised).
T1 construct: also called MSA
Method: Recombinant protein A, HSA, MSA or target (either ED-B or Her2) was immobilized on a High Capacity Amine sensor chip (Bruker) after NHS/EDC activation with a Sierra SPR-32 system (Bruker). The chip was equilibrated with SPR running buffer (PBS 0.05%, Tween pH 7.3). Injection of ethanolamine after target immobilization was used to block free NHS groups. To determine the binding of fusion proteins to FAP, the Fc-tagged target was injected with 60 or 30 nM to Protein A coupled spots followed by the injection of fusion proteins.
Binding proteins were applied to the chip in serial dilutions with a flow rate of 30 μl/min. Upon binding, analyte accumulated on the surface increasing the refractive index. This change in the refractive index was measured in real time and plotted as response or resonance units versus time. The association was performed for 120 seconds and the dissociation for 180 seconds. After each run, the chip surface was regenerated with 30 μl regeneration buffer (10 mM glycine pH 2.0 or pH 1.5) and equilibrated with running buffer. Binding studies were carried out using the Sierra SPR-32 system (Bruker); data evaluation was operated via the Sierra Analyser software, provided by the manufacturer, by the use of the Langmuir 1:1 model (RI=0).
In the case of B1, the Kd is reported as < 10 nM.
B2 was tested, and the Kd was < 16 nM.
B3 was tested, and the Kd was < 10 nM.
With B4 the Kd was < 10 nM.
For B5, the Kd was < 10 nM.
In the case of B6, the Kd is reported as < 16 nM.
With B7 the Kd was < 10 nM.
In the case of B8, the Kd is reported as < 16 nM.
For B9, the Kd was < 16 nM.
With B10 the Kd was < 16 nM.
